Source: patent publication US20230121433A1

How the values were obtained:
Experiment in all cases: cell-based or functional assay
[1] = molecular target: CSR 82DH.TF2z
[2] = molecular target: CSR 2DH.TF2z
[3] = molecular target: CSR 82DH.2TF2z WT
[4] = molecular target: CSR 01 CD2.DH.z
[5] = molecular target: CSR 2DH.2TF2z WT
Chain of CSR 2DH.2TF2z WT (chain, as listed by the source): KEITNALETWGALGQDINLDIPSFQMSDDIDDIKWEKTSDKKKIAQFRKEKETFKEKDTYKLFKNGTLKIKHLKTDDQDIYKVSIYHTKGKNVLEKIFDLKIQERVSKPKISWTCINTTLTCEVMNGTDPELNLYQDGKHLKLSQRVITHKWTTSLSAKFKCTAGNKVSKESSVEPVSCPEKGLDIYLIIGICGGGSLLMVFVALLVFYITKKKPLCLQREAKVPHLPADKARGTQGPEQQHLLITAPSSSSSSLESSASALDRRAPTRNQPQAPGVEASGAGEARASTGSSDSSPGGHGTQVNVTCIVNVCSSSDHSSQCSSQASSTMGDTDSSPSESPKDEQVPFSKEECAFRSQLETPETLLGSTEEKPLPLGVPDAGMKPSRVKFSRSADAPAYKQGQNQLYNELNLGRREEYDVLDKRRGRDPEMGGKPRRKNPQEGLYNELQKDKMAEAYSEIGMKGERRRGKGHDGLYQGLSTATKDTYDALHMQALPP

Chain of CSR 82DH.2TF2z WT (chain, as listed by the source): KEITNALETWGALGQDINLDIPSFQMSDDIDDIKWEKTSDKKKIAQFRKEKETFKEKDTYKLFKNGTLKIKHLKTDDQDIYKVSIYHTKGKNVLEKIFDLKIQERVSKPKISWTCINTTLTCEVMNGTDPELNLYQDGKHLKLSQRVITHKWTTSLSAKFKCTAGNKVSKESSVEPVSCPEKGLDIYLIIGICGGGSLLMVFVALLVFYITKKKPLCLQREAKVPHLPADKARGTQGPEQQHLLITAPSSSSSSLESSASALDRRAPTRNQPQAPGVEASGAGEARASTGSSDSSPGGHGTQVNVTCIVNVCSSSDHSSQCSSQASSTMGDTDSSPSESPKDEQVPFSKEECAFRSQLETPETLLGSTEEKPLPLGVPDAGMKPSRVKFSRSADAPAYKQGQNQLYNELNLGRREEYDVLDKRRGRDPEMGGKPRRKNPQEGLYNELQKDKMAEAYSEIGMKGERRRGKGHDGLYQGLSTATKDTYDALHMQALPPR
Chain of CSR 82DH.TF2z (chain, as listed by the source): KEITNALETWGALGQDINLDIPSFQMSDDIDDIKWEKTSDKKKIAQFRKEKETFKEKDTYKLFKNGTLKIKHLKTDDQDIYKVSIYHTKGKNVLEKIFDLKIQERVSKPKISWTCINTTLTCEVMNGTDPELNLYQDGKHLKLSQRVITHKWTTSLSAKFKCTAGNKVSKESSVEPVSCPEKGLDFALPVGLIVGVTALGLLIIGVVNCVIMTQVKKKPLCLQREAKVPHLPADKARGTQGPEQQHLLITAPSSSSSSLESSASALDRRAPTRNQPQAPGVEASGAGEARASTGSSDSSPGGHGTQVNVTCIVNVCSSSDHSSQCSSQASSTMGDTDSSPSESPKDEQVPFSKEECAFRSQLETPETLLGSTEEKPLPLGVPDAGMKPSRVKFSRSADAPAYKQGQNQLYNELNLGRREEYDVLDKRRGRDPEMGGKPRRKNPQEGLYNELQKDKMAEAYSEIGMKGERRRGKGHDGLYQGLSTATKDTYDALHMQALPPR
Chain of CSR 2DH.TF2z (chain, as listed by the source): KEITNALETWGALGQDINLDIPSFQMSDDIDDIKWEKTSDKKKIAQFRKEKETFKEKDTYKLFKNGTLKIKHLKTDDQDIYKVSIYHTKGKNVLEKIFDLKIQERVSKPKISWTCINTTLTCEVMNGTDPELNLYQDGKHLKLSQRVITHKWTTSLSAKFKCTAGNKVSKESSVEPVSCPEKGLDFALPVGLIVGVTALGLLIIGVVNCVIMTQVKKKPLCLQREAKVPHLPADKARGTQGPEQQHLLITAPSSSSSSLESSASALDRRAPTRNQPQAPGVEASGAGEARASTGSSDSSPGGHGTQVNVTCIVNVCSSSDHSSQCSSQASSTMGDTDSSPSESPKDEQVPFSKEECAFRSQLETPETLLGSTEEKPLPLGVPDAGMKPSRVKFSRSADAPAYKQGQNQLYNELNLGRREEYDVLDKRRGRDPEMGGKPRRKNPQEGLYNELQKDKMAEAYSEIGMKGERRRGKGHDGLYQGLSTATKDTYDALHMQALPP
Chain of CSR 01 CD2.DH.z (chain, as listed by the source): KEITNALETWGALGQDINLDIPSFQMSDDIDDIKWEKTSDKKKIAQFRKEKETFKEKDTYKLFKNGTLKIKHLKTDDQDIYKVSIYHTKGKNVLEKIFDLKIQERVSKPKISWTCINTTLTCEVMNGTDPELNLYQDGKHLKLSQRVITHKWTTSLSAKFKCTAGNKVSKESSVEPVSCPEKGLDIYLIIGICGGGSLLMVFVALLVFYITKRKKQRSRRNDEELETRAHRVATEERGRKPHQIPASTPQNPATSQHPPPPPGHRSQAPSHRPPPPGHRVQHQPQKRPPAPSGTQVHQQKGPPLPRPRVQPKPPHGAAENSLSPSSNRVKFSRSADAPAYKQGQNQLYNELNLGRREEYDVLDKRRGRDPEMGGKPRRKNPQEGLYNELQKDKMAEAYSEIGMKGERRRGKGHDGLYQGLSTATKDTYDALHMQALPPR

pSTAT5 Expression post activation in Treg cells (% of live cells), +16 hours, Donor 4 (% of live cells) [1]: 10.5
pSTAT5 Expression post activation in Treg cells (% of live cells), +24 hours, Donor 4 (% of live cells) [1]: 11.6
pSTAT5 Expression post activation in pan T cells (% of live cells), +4 hours, Donor 1 (% of live cells) [1]: 5.49
pSTAT5 Expression post activation in pan T cells (% of live cells), +4 hours, Donor 2 (% of live cells) [1]: 5.09
pSTAT5 Expression post activation in pan T cells (% of live cells), +24 hours, Donor 1 (% of live cells) [1]: 6.16
pSTAT5 Expression post activation in pan T cells (% of live cells), +24 hours, Donor 2 (% of live cells) [1]: 10.1
pSTAT5 Expression post activation in Treg cells (% of live cells), +16 hours, Donor 4 (% of live cells) [2]: 9.24
pSTAT5 Expression post activation in Treg cells (% of live cells), +24 hours, Donor 4 (% of live cells) [2]: 8.64
pSTAT5 Expression post activation in pan T cells (% of live cells), +4 hours, Donor 1 (% of live cells) [2]: 5.43
pSTAT5 Expression post activation in pan T cells (% of live cells), +4 hours, Donor 2 [2]: 4.2%
pSTAT5 Expression post activation in pan T cells (% of live cells), +24 hours, Donor 1 [2]: 5.67%
pSTAT5 Expression post activation in pan T cells (% of live cells), +24 hours, Donor 2 [2]: 5.17%
pSTAT5 Expression post activation in Treg cells (% of live cells), +16 hours, Donor 4 [3]: 13.3%
pSTAT5 Expression post activation in Treg cells (% of live cells), +16 hours, Donor 5 (% of live cells) [3]: 7.45
pSTAT5 Expression post activation in Treg cells (% of live cells), +24 hours, Donor 4 [3]: 13.6%
pSTAT5 Expression post activation in Treg cells (% of live cells), +24 hours, Donor 5 [3]: 9.16%
pSTAT5 Expression post activation in pan T cells (% of live cells), +4 hours, Donor 1 [3]: 3.24%
pSTAT5 Expression post activation in pan T cells (% of live cells), +4 hours, Donor 2 (% of live cells) [3]: 11
pSTAT5 Expression post activation in pan T cells (% of live cells), +24 hours, Donor 1 (% of live cells) [3]: 5.5
pSTAT5 Expression post activation in pan T cells (% of live cells), +24 hours, Donor 2 [3]: 6.36%
pSTAT5 Expression post activation in Treg cells (% of live cells), +16 hours, Donor 4 [4]: 7.1%
pSTAT5 Expression post activation in Treg cells (% of live cells), +16 hours, Donor 5 [4]: 10.3%
pSTAT5 Expression post activation in Treg cells (% of live cells), +24 hours, Donor 4 [4]: 10.5%
pSTAT5 Expression post activation in Treg cells (% of live cells), +24 hours, Donor 5 [4]: 11.1%
pSTAT5 Expression post activation in pan T cells (% of live cells), +4 hours, Donor 1 (% of live cells) [4]: 3.52
pSTAT5 Expression post activation in pan T cells (% of live cells), +4 hours, Donor 2 (% of live cells) [4]: 41.1
pSTAT5 Expression post activation in pan T cells (% of live cells), +24 hours, Donor 1 (% of live cells) [4]: 17.7
pSTAT5 Expression post activation in pan T cells (% of live cells), +24 hours, Donor 2 [4]: 47.9%
pSTAT5 Expression post activation in Treg cells (% of live cells), +16 hours, Donor 4 [5]: 13.9%
pSTAT5 Expression post activation in Treg cells (% of live cells), +16 hours, Donor 5 (% of live cells) [5]: 10.3
pSTAT5 Expression post activation in Treg cells (% of live cells), +24 hours, Donor 4 (% of live cells) [5]: 15.8
pSTAT5 Expression post activation in Treg cells (% of live cells), +24 hours, Donor 5 (% of live cells) [5]: 13.5
pSTAT5 Expression post activation in pan T cells (% of live cells), +4 hours, Donor 1 [5]: 4.73%
pSTAT5 Expression post activation in pan T cells (% of live cells), +4 hours, Donor 2 (% of live cells) [5]: 2.78
pSTAT5 Expression post activation in pan T cells (% of live cells), +24 hours, Donor 1 (% of live cells) [5]: 8.34
pSTAT5 Expression post activation in pan T cells (% of live cells), +24 hours, Donor 2 (% of live cells) [5]: 15.8
Substance: Immunocult Human CD2 T cell activator (StemCell Technologies)
